Assay results published in patent publication US20170304566A1 (Ablynx, published 2017).

Target: F protein (fusion glycoprotein) of hRSV, Memphis 37 strain (human respiratory syncytial virus, …)
Assay: cell-based or functional assay

B1: SEQ ID NO: 71 (RSV434), trivalent polypeptide consisting of three anti-hRSV immunoglobulin single variable domains (VHH)
chain: DVQLVESGGGLVQAGGSLSISCAASGGSLSNYVLGWFRQAPGKEREFVAAINWRGDITIGPPNVEGRFTISRDNAKNTGYLQMNSLAPDDTAVYYCGAGTPLNPGAYIYDWSYDYWGRGTQVTVSSGGGGSGGGGSGGGGSEVQLVESGGGLVQAGGSLSISCAASGGSLSNYVLGWFRQAPGKEREFVAAINWRGDITIGPPNVEGRFTISRDNAKNTGYLQMNSLAPDDTAVYYCGAGTPLNPGAYIYDWSYDYWGRGTQVTVSSGGGGSGGGGSGGGGSEVQLVESGGGLVQAGGSLSISCAASGGSLSNYVLGWFRQAPGKEREFVAAINWRGDITIGPPNVEGRFTISRDNAKNTGYLQMNSLAPDDTAVYYCGAGTPLNPGAYIYDWSYDYWGRGTQVTVSS
Q: How did the “sensitivity in in vitro neutralization relative to RSV-B 18537” value turn out when B1 was run?
A: Its value is roughly 6 fold.
